Consider four molecules from paper doi:10.1101/2023.04.18.537051 (bioRxiv, 2023).

To fix the notation:
B1: RafH (ribosome associated factor under hypoxia), M. smegmatis MSMEG_3935 (natural protein)
chain: MDVDVSTDGELPGAAEYAREKIGRLSRRAHRPVLHARVRLTRHGDPAVERPVIAQANLDVNGRQVRAQVEGVNAREAVDRLEARLRSRLERIAEHWEARRGGVPAEAGREWRHESEPARRPGYFPRPPEERRIIRRKSFSMVPCTVDEAALEMEMLDYDFHLFTEKGTGFAAVLYKGGPTGYRLVLVIPVPADELSPFEKPITISTHPAPCLTQRDAVERLGLLGLPFLFYIDAAEGRASVIYRRYDGHYGLITPADG

Experiment [1] has as its target T1, ribosomal protein bS1 of the M. smegmatis 70S ribosome (M. smegmatis (mc2155), UniProt A0QYY6 1-479).
T1 sequence: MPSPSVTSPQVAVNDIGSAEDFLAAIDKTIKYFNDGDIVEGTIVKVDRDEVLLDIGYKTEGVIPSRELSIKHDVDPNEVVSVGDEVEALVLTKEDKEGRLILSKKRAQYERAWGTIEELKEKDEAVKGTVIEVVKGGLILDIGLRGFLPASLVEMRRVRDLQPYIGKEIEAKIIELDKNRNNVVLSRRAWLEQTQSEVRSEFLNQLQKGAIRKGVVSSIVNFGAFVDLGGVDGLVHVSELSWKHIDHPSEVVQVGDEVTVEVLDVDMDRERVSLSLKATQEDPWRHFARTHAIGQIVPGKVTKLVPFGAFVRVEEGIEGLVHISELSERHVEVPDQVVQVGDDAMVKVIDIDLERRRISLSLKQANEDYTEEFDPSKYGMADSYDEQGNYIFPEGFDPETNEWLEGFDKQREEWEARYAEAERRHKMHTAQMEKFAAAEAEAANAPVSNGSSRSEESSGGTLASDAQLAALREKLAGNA
The experiment can be described thus: cryo-EM structure.

For experiment [2], the target named is B1. Put plainly: cryo-EM structure.

In the case of B1, the binding result in experiment [1] is reported as “binds”.

B2: ribosomal protein uS11 of the M. smegmatis 70S ribosome (natural protein)
chain: not shown
On to B2, for which the binding result in experiment [2] was “binds”.

B3: ribosomal protein uS9 of the M. smegmatis 70S ribosome (natural protein)
chain: MTDVTETEVVTESAEPREPVIIDRPIQTVGRRKEAVVRVRLVPGTGQFNLDGRTLENYFPNKVHQQLIKAPLVTVDRVDQFDIYAHLDGGGPSGQAGALRLAIARALILVQPEDRPALKKAGFLTRDPRAIERKKYGLKKARKAPQYSKR
B3: the binding result in experiment [2] was “binds”.

B4: ribosomal protein uS2 of the M. smegmatis 70S ribosome (natural protein)
chain: MAVVTMKQLLDSGAHFGHQTRRWNPKMKRFIFTDRNGIYIIDLQQTLTYIDKAYEFVKETVAHGGTVLFVGTKKQAQESIAEEATRVGMPYVNQRWLGGMLTNFSTVHKRLQRLKELEAMEQTGGFEGRTKKEILMLTREKNKLERSLGGIRDMQKVPSAVWVVDTNKEHIAVGEARKLGIPVIAILDTNCDPDVVDYPIPGNDDAIRSAALLTKVIASAVAEGLQARAGQGSGEKPAEGAEPLAEWEQELLAGATAGAADASAEGAAAPESSTDAS
Take B4: the binding result in experiment [1] is listed as “binds”.
